This note sets out measurements from patent publication US20110129459A1 (Chugai, published 2011).

Experiment [1] addresses T1, mmh (human/mouse chimeric NR10 extracellular domain, His/Myc tagged) (human/mouse chimera).
T1 construct: C-terminal His-Myc tag
T1 chain: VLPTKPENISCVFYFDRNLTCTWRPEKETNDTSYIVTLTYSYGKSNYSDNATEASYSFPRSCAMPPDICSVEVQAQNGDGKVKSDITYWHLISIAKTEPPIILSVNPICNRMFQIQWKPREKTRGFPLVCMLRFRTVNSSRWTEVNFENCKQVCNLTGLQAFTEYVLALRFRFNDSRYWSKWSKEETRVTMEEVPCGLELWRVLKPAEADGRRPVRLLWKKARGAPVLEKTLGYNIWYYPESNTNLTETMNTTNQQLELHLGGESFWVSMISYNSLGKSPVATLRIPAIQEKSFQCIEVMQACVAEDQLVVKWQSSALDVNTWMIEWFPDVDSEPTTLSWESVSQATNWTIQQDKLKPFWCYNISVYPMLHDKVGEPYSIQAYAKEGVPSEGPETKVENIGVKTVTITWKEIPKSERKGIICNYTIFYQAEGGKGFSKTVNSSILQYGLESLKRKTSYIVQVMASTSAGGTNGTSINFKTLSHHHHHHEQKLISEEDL
Kind of experiment: Western blotting, 0.5 µg antigen per lane. As for the experimental part: (§1) Each of the prepared human/mouse wild-type and chimeric antigens was electrophoresed at 0.5 μg/lane on three 4-20% polyacrylamide gels (Daiichi Pure Chemicals Co.). The proteins were electro-transferred onto PVDF membranes (Millipore) in a semi-dry blotting apparatus, and the membranes were blocked with TBS containing 5% skim milk. One membrane was incubated with 5 μg/ml of H44M58L17 (detection system for humanized anti-human NR10 antibody); another with 5 μg/ml of ND41 (detection system for mouse anti-human NR10 antibody); and the other one with anti-Myc antibody (SantaCruz, Cat.#sc-789) 500-times diluted with TBS containing 5% skim milk (detection system for Myc tag) at room temperature for one hour.
(§2) After washing three times with TBS containing 0.05% Tween™ 20, the secondary antibodies were incubated with the membranes. Alkaline phosphatase-labeled goat anti-human IgGγ (BIOSOURCE, Cat. #AHI0305) was used to detect humanized anti-human NR10 antibody; alkaline phosphatase-labeled goat anti-mouse IgG (SantaCruz, Cat. #sc-2008) was used to detect mouse anti-human NR10 antibody; and alkaline phosphatase-labeled goat anti-rabbit IgG (SantaCruz, Cat. #sc-2057) was used to detect Myc tag. The reaction was carried out at room temperature for one hour. […]
(In general: In western blotting, separated proteins are transferred to a membrane and probed.)

Experiment [2] addresses T2, mhh (human/mouse chimeric NR10 extracellular domain, His/Myc tagged) (human/mouse chimera).
T2 construct: C-terminal His-Myc tag
T2 chain: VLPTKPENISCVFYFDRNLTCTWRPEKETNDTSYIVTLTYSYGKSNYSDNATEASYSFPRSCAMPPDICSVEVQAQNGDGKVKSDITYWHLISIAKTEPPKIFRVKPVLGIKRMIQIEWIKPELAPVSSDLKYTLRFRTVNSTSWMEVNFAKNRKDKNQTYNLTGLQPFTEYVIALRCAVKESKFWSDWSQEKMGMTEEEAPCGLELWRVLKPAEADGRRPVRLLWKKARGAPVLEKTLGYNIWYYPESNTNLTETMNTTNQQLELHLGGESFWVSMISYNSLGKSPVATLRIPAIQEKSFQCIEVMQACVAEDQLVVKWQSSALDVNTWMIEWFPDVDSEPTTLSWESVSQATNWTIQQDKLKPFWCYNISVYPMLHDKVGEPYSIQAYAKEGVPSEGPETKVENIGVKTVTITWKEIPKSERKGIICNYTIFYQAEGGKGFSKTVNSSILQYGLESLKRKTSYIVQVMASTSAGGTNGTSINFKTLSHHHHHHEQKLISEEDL
The experiment can be described thus: Western blot of purified His/Myc-tagged NR10-ECD probed with H44M58L17, detected with AP-labeled goat anti-human IgG. The method, then: as §1, §2

Experiment [3] has as its target T3, rhNR10 (recombinant human NR10) (human, UniProt Q8NI17 20-519, limits assumed).
T3 construct: also called IL-31 receptor; IL31RA
T3 sequence: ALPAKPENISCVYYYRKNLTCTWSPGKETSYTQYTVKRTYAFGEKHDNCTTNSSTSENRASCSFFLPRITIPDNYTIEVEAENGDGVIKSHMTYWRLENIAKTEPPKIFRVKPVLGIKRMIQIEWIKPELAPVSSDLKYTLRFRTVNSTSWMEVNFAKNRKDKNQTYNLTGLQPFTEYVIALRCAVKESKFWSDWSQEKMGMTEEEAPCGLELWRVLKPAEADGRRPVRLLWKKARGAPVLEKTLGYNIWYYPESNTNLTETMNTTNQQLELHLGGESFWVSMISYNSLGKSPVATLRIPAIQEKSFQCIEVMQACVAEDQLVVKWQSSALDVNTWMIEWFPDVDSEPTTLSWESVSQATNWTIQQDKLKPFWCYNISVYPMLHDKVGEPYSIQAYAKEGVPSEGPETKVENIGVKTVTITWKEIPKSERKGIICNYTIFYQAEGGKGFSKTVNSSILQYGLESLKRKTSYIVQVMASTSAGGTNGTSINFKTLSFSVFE
The experiment can be described thus: SPR, Biacore T100; antibody captured on Protein A, rhNR10 as analyte. As for the experimental part:
Kinetic analysis of the antigen-antibody reaction was carried out using Biacore T100 (GE Healthcare Biosciences). The antigen-antibody interaction was measured by immobilizing rec-Protein A (hereinafter Protein A) (ZYMED) onto a sensor chip, capturing an antibody on the immobilized Protein A, and then reacting the antigen as an analyte. Various concentrations of rhNR10 were used as the antigen. The kinetic parameters, association rate constant kₐ (1/Ms) and dissociation rate constant kd (1/s), were calculated from the sensorgrams obtained by the measurement. Then, KD (M) was determined based on the rate constants. Each parameter was determined using Biacore T100 Evaluation Software version 1.1 (GE Healthcare Biosciences).
The running buffer used was HBS-EP+. Each antibody was prepared at 0.25 μg/ml, or prepared so that about 100 RU would bind to Protein A. rhNR10 used as an analyte was prepared at 0, 38.5, 77.0, and 154 nM, or at 0, 19.25, and 77.01 nM using HBS-EP+. In the measurement, first, the antibody solution was captured on Protein A, and an analyte solution was reacted at a flow rate of 20 μL/min for three minutes. Then, the solution was switched to HBS-EP+, and the dissociation phase was measured for five minutes. After measurement of the dissociation phase, the sensor chip was regenerated by washing with 10 mM glycine-HCl (pH 1.5). The obtained sensorgrams were kinetically analyzed using the Biacore-specific data analysis software, Biacore T100 Evaluation Software Version 1.1.
On the technique in general: Surface plasmon resonance follows binding to a sensor surface in real time, without labels.

For experiment [4], the target named is T4, cytoplasmic domain-lacking human NR10 on CHO cells (hNR10-expressing CHO cells) (human, UniProt Q8NI17 20-553).
T4 construct: also called NR10-expressing cells
T4 sequence: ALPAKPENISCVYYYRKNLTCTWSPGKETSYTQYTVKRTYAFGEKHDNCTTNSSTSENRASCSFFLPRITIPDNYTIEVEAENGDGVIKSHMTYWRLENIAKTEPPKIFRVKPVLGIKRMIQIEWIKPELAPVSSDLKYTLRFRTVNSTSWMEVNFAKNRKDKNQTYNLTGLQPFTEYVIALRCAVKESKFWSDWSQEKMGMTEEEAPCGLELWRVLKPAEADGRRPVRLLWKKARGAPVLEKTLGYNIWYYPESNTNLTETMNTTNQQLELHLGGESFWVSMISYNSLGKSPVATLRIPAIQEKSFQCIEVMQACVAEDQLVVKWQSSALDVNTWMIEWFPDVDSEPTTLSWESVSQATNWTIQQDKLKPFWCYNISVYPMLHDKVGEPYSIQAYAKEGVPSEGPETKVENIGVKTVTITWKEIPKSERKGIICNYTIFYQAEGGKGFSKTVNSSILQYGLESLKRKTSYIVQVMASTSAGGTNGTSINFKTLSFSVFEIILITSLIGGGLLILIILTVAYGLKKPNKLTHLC
The experiment can be described thus: FMAT competition on hNR10-expressing CHO cells: antibody titrated against FMAT Blue-labeled hIL-31; FL1 = cell-bound labeled hIL-31. The method, then: Human IL-31 (R&D Systems) was labeled with FMAT Blue Monofunctional Reactive Dye (Applied Biosystems). 100 μl of hIL-31 prepared at 0.5 mg/ml using 50 mM sodium phosphate buffer (pH 8.0) was mixed with 5.25 μl of 25 nmoles FMAT Blue dissolved in DMSO (Junsei). After vortexing, the mixture was allowed to stand at room temperature for 15 minutes. The FMAT Blue-conjugating reaction with hIL-31 was terminated by adding 5 μl of 1 M Tris-HCl (pH 7.4) and 1.1 μl of 10% Tween20, and then FMAT Blue-labeled hIL-31 and unreacted FMAT Blue were separated by gel filtration using Superdex 75 (GE Healthcare, 17-0771-01) column with 0.1% Tween20/PBS developing solution.
NS22 and NA633 (the constant region of each is γ1, κ) were diluted at an appropriate concentration using Assay buffer (10 mM HEPES, 140 mM NaCl, 2.5 mM CaCl₂, 3 mM MgCl₂, 2% FBS, 0.01% NaN₃), and then seven serial dilutions were prepared at a common dilution ratio of 2. The dilutions were added at 40 μl/well to plates (96-Well FMAT Plates; Applied Biosystems). Then, FMAT Blue-labeled hIL-31 was diluted 400 times with Assay buffer and added at 20 μl/well. Finally, cell suspensions adjusted to 2.5×10⁵ cells/ml using Assay buffer were added at 40 μl/well (final 1×10⁴ cells/well). Two hours after addition of cells, the fluorescence (FL1) was determined using the 8200 Cellular Detection System (Applied Biosystems).

B1: H44L17 (H44-M58 / L17) (antibody, V domains shown)
VH: QVQLVQSGAEVKKPGASVKVSCKASGYTFTGYIMNWVRQAPGQGLEWMGLINPYNGGTDYNPQFQDRVTITADKSTSTAYMELSSLRSEDTAVYYCARDGYDDGPYTLETWGQGTLVTVSS
VL: DIQMTQSPSSLSASVGDRVTITCQASEDIYSFVAWYQQKPGKAPKLLIYNAQTEAQGVPSRFSGSGSGTDFTLTISSLQPEDFATYYCQHHYDSPLTFGGGTKVEIKR
notes: also called humanized anti-human NR10 antibody
In general, Kd refers to the constant that tells how readily two partners part at equilibrium. Broadly, the koff is the rate constant with which the complex falls apart. A word on the kon: it is the second-order rate constant of association. For B1, in experiment [1], the binding result is reported as “no binding (tested: 5 µg/ml)”. For the same molecule, in experiment [2], the binding result is given as “no binding”. In experiment [3], the Kd is 1.2 nM, the koff amounted to 0.00072 s⁻¹ and the kon is 610000 M⁻¹ s⁻¹.

B2: chimeric NA633 (human gamma1, kappa) (antibody, V domains shown)
VH: DVQLRESGPGLVKPSQSLSLTCTVTGYSITSDYAWNWIRQFPGNKLEWMGYISYSGSTSYNPSLKSRVSITRDTSKNQFFLQLNSVTTEDTATYYCAPMITTDWFFDVWGAGTTVTVSS
VL: DIVMTQSPATLSVTPGDRVSLSCRASHDISDFLHWYQQKSHESPRLLIKYASQSISGIPSRFSGSGSGSDFTLSINSVEPEDVGVYYCQNGHSFPWTFGGGTKLEIK
notes: Mouse variable regions with human constant regions (H chain gamma1)
In the case of B2, the binding result in experiment [4] was “binds”.
